Experimental data as given in IntAct's records for PubMed 23665169.

Target: stk25_human STK25 (UniProt O00506)
Sequence (O00506 whole entry, looked up): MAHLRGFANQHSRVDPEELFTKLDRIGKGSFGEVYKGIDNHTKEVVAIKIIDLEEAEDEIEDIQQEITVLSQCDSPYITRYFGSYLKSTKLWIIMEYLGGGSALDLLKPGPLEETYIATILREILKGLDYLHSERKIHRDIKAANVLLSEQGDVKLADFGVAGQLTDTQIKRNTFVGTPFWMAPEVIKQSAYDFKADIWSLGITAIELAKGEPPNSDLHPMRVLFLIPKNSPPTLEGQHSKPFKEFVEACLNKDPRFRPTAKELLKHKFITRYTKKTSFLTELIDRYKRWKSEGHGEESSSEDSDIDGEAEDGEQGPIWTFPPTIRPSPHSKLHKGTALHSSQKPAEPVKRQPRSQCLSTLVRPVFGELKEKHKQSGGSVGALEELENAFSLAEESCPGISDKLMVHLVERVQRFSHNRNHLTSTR

Sequence of Programmed cell death protein 10 (Homo sapiens), Q9BUL8 F76D;L80D;M83D (Q9BUL8 whole entry F76D/L80D/M83D): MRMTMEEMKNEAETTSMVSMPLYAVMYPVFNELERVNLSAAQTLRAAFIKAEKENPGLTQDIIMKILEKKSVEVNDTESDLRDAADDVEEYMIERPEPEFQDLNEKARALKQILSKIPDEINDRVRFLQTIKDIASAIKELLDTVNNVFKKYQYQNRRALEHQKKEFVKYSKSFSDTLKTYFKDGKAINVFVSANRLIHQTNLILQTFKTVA

## Programmed cell death protein 10 (Homo sapiens), Q9BUL8 F76D;L80D;M83D
  effect of a mutation on the interaction: decreasing interaction strength
